Article PMC12416549 (2024)

T1: TNFR1 (Homo sapiens, UniProt P19438)
T1 chain: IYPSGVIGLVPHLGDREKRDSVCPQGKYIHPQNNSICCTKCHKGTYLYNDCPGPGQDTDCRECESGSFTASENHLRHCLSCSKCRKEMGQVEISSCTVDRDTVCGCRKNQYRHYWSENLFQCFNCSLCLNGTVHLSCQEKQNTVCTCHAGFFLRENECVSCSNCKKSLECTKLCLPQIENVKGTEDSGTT


Molecular target: T1, TNFR1
Experiment: yeast display SC50

Binder	apparent Kd (screen) [nM]
A10I (designed binder) SMEEEVEKAIKEYEKKKKEAIEKHLEKLKAKDKEAAERFLKELEEAAKEYAKDEAKTMSEEEAKRRAKKYKEKVLLSELSEEEQKEIKEAEEKLVRTILKYVEEAAK	0.446
K27P (designed binder) SMEEEVEKAAKEYEKKKKEAIEKHLEPLKAKDKEAAERFLKELEEAAKEYAKDEAKTMSEEEAKRRAKKYKEKVLLSELSEEEQKEIKEAEEKLVRTILKYVEEAAK	2.73
E26L (designed binder) SMEEEVEKAAKEYEKKKKEAIEKHLLKLKAKDKEAAERFLKELEEAAKEYAKDEAKTMSEEEAKRRAKKYKEKVLLSELSEEEQKEIKEAEEKLVRTILKYVEEAAK	0.869
H24L (designed binder) SMEEEVEKAAKEYEKKKKEAIEKLLEKLKAKDKEAAERFLKELEEAAKEYAKDEAKTMSEEEAKRRAKKYKEKVLLSELSEEEQKEIKEAEEKLVRTILKYVEEAAK	0.539
L40D (designed binder) SMEEEVEKAAKEYEKKKKEAIEKHLEKLKAKDKEAAERFDKELEEAAKEYAKDEAKTMSEEEAKRRAKKYKEKVLLSELSEEEQKEIKEAEEKLVRTILKYVEEAAK	1.4
E37S (designed binder) SMEEEVEKAAKEYEKKKKEAIEKHLEKLKAKDKEAASRFLKELEEAAKEYAKDEAKTMSEEEAKRRAKKYKEKVLLSELSEEEQKEIKEAEEKLVRTILKYVEEAAK	0.49
L40N (designed binder) SMEEEVEKAAKEYEKKKKEAIEKHLEKLKAKDKEAAERFNKELEEAAKEYAKDEAKTMSEEEAKRRAKKYKEKVLLSELSEEEQKEIKEAEEKLVRTILKYVEEAAK	0.539
K23T (designed binder) SMEEEVEKAAKEYEKKKKEAIETHLEKLKAKDKEAAERFLKELEEAAKEYAKDEAKTMSEEEAKRRAKKYKEKVLLSELSEEEQKEIKEAEEKLVRTILKYVEEAAK	0.446
E54S (designed binder) SMEEEVEKAAKEYEKKKKEAIEKHLEKLKAKDKEAAERFLKELEEAAKEYAKDSAKTMSEEEAKRRAKKYKEKVLLSELSEEEQKEIKEAEEKLVRTILKYVEEAAK	6.43

Now from value to binder:

apparent Kd (screen) [nM]	Binder
3	R96N (designed binder) SMEEEVEKAAKEYEKKKKEAIEKHLEKLKAKDKEAAERFLKELEEAAKEYAKDEAKTMSEEEAKRRAKKYKEKVLLSELSEEEQKEIKEAEEKLVNTILKYVEEAAK
0.956	E61T (designed binder) SMEEEVEKAAKEYEKKKKEAIEKHLEKLKAKDKEAAERFLKELEEAAKEYAKDEAKTMSETEAKRRAKKYKEKVLLSELSEEEQKEIKEAEEKLVRTILKYVEEAAK
12.5	E86P (designed binder) SMEEEVEKAAKEYEKKKKEAIEKHLEKLKAKDKEAAERFLKELEEAAKEYAKDEAKTMSEEEAKRRAKKYKEKVLLSELSEEEQKPIKEAEEKLVRTILKYVEEAAK
2.25	I87L (designed binder) SMEEEVEKAAKEYEKKKKEAIEKHLEKLKAKDKEAAERFLKELEEAAKEYAKDEAKTMSEEEAKRRAKKYKEKVLLSELSEEEQKELKEAEEKLVRTILKYVEEAAK
2.73	S59I (designed binder) SMEEEVEKAAKEYEKKKKEAIEKHLEKLKAKDKEAAERFLKELEEAAKEYAKDEAKTMIEEEAKRRAKKYKEKVLLSELSEEEQKEIKEAEEKLVRTILKYVEEAAK
